What was measured:
[1] = tested on: HeLa cells; assay: Luciferase in HeLa cells using a combination of modifications; format: cell-based, human; conditions: 83 ng luciferase modified RNA, 18 to 22 hours
Description: To evaluate using of 2′fluoro-modified mRNA in combination with other modification a series of mRNA were transcribed using either wild-type T7 polymerase (non-fluoro-containing compounds) or using mutant T7 polymerases (fluyoro-containing compounds) as described in Example 86. All modified mRNA were tested by in vitro transfection in HeLa cells.
The day before transfection, 20,000 HeLa cells (ATCC no. CCL-2; Manassas, Va.) were harvested by treatment with Trypsin-EDTA solution (LifeTechnologies, Grand Island, N.Y.) and seeded in a total volume of 100 ul EMEM medium (supplemented with 10% FCS and 1× Glutamax) per well in a 96-well cell culture plate (Corning, Manassas, Va.). The cells were grown at […] in 5% CO2 atmosphere overnight. […] Lipofectamine 2000 (LifeTechnologies, Grand Island, N.Y.) was used as transfection reagent and 0.2 ul were diluted in 10 ul final volume of OPTI-MEM. After 5 minutes of incubation at room temperature, both solutions were combined and incubated an additional 15 minute at room temperature. Then the 20 ul combined solution was added to the 100 ul cell culture medium containing the HeLa cells and incubated at room temperature.
After 18 to 22 hours of incubation cells expressing luciferase were lysed with 100 ul of Passive Lysis Buffer (Promega, Madison, Wis.) according to manufacturer instructions. Aliquots of the lysates were transferred to white opaque polystyrene 96-well plates (Corning, Manassas, Va.) and combined with 100 ul complete luciferase assay solution (Promega, Madison, Wis.). The lysate volumes were adjusted or diluted until no more than 2 mio relative light units (RLU) per well were detected for the strongest signal producing samples and the RLUs for each chemistry tested are shown in Table 26. The plate reader was a BioTek Synergy H1 (BioTek, Winooski, Vt.). The background signal of the plates without reagent was about 200 relative light units per well.

[2] = tested on: tumor necrosis factor alpha (TNF-α); assay: In vitro screening in PBMC: tumor necrosis factor alpha induction by ELISA; format: cell-based, human
Description: (§1) The supernatant was harvested and stored frozen until analyzed by ELISA to determine the G-CSF protein expression, and the induction of the cytokines interferon-alpha (IFN-α) and tumor necrosis factor alpha (TNF-α).

[3] = tested on: peripheral blood mononuclear cells (PBMC); assay: In vitro screening in PBMC: G-CSF protein expression by ELISA; format: cell-based, human
Description: as §1

[4] = tested on: interferon-alpha (IFN-α); assay: In vitro screening in PBMC: interferon-alpha induction by ELISA; format: cell-based, human
Description: as §1

[5] = tested on: HeLa cells; assay: G-CSF modified mRNA transfected in HeLa cells, G-CSF ELISA; format: cell-based, human; conditions: HeLa cells, ELISA
Description: (§2) To assess the activity of all our different chemical modifications in the context of a second open reading frame, we replicated experiments previously conducted using luciferase mRNA, with human G-CSF mRNA. […] The mutant T7 polymerase was obtained commercially (Durascribe® T7 Transcription kit (Cat. No. DS010925) (Epicentre®, Madison, Wis.).
(§3) The modified RNA in Tables 27 and 28 were transfected in vitro in HeLa cells or added to rabbit reticulysates (250 ng of modified mRNA) as indicated. […] In Table 27, “NT” means not tested.

[6] = tested on: rabbit reticulysates; assay: G-CSF modified mRNA in rabbit reticulysates, G-CSF ELISA; format: biochemical; conditions: 250 ng of modified mRNA, listed as 5-methylcytosine/pseudouridine
Description: as §2, §3

[7] = PBMC Donor 1, 500 ng G-CSF mRNA
[8] = PBMC Donor 1, 500 ng G-CSF mRNA, listed as 5-methylcytosine and pseudouridine (2nd set)
[9] = PBMC Donor 1, 500 ng G-CSF mRNA, listed as 5-methylcytosine and pseudouridine (3rd set)
[10] = PBMC Donor 1, 500 ng G-CSF mRNA, listed as 5-methylcytosine and pseudouridine (4th set)
[11] = PBMC Donor 2, 500 ng G-CSF mRNA
[12] = PBMC Donor 2, 500 ng G-CSF mRNA, listed as 5-methylcytosine and pseudouridine (2nd set)
[13] = PBMC Donor 2, 500 ng G-CSF mRNA, listed as 5-methylcytosine and pseudouridine (3rd set)
[14] = PBMC Donor 2, 500 ng G-CSF mRNA, listed as 5-methylcytosine and pseudouridine (4th set)
[15] = PBMC Donor 3, 500 ng G-CSF mRNA
[16] = PBMC Donor 3, 500 ng G-CSF mRNA, listed as 5-methylcytosine and pseudouridine (2nd set)
[17] = PBMC Donor 3, 500 ng G-CSF mRNA, listed as 5-methylcytosine and pseudouridine (3rd set)
[18] = PBMC Donor 3, 500 ng G-CSF mRNA, listed as 5-methylcytosine and pseudouridine (4th set)

Molecule: 2′Fluoroguanine/N1-methylpsuedouridine: Luciferase mRNA (SEQ ID NO: 409) modified with the named combination
- RLU [1]: 247 RLU

Molecule: 2′Fluoroguanine/pseudouridine: Luciferase mRNA (SEQ ID NO: 409) modified with the named combination
- RLU [1]: 218 RLU

Molecule: 2′Fluoroguanine/5-methylcytidine/N1 methylpsuedouridine: Luciferase mRNA (SEQ ID NO: 409) modified with the named combination
- RLU [1]: 235 RLU

B1: 5-methylcytosine and pseudouridine (1^st set): G-CSF mRNA (SEQ ID NO: 408) fully modified with 5-methylcytosine and pseudouridine; repeated sets/tests (nucleic acid)
chain: GGGAAAUAAGAGAGAAAAGAAGAGUAAGAAGAAAUAUAAGAGCCACCAUGGCCGGUCCCGCGACCCAAAGCCCCAUGAAACUUAUGGCCCUGCAGUUGCUGCUUUGGCACUCGGCCCUCUGGACAGUCCAAGAAGCGACUCCUCUCGGACCUGCCUCAUCGUUGCCGCAGUCAUUCCUUUUGAAGUGUCUGGAGCAGGUGCGAAAGAUUCAGGGCGAUGGAGCCGCACUCCAAGAGAAGCUCUGCGCGACAUACAAACUUUGCCAUCCCGAGGAGCUCGUACUGCUCGGGCACAGCUUGGGGAUUCCCUGGGCUCCUCUCUCGUCCUGUCCGUCGCAGGCUUUGCAGUUGGCAGGGUGCCUUUCCCAGCUCCACUCCGGUUUGUUCUUGUAUCAGGGACUGCUGCAAGCCCUUGAGGGAAUCUCGCCAGAAUUGGGCCCGACGCUGGACACGUUGCAGCUCGACGUGGCGGAUUUCGCAACAACCAUCUGGCAGCAGAUGGAGGAACUGGGGAUGGCACCCGCGCUGCAGCCCACGCAGGGGGCAAUGCCGGCCUUUGCGUCCGCGUUUCAGCGCAGGGCGGGUGGAGUCCUCGUAGCGAGCCACCUUCAAUCAUUUUUGGAAGUCUCGUACCGGGUGCUGAGACAUCUUGCGCAGCCGUGAAGCGCUGCCUUCUGCGGGGCUUGCCUUCUGGCCAUGCCCUUCUUCUCUCCCUUGCACCUGUACCUCUUGGUCUUUGAAUAAAGCCUGAGUAGGAAG
modifications: 5-methylcytosine/pseudouridine modified; Description of Artificial Sequence: Synthetic Transcript Sequence
notes: repeated sets/tests
- TNF-α Expression [2, 7]: 64 pg/mL
- TNF-α Expression [2, 8]: 99 pg/mL
- TNF-α Expression [2, 9]: 84 pg/mL
- TNF-α Expression [2, 10]: 53 pg/mL
- TNF-α Expression [2, 11]: 89 pg/mL
- TNF-α Expression [2, 12]: 111 pg/mL
- TNF-α Expression [2, 13]: 89 pg/mL
- TNF-α Expression [2, 14]: 24 pg/mL
- TNF-α Expression [2, 15]: 121 pg/mL
- TNF-α Expression [2, 16]: 150 pg/mL
- TNF-α Expression [2, 17]: 130 pg/mL
- TNF-α Expression [2, 18]: 29 pg/mL
- G-CSF Protein Expression [3, 7]: 2,632 pg/ml
- G-CSF Protein Expression [3, 8]: 1,682 pg/ml
- G-CSF Protein Expression [3, 9]: 1,595 pg/ml
- G-CSF Protein Expression [3, 10]: 264 pg/mL
- G-CSF Protein Expression [3, 11]: 1,955 pg/ml
- G-CSF Protein Expression [3, 12]: 1,382 pg/ml
- G-CSF Protein Expression [3, 13]: 1,432 pg/ml
- G-CSF Protein Expression [3, 14]: 350 pg/mL
- G-CSF Protein Expression [3, 15]: 1,373 pg/ml
- G-CSF Protein Expression [3, 16]: 1,036 pg/ml
- G-CSF Protein Expression [3, 17]: 955 pg/mL
- G-CSF Protein Expression [3, 18]: 182 pg/mL
- IFN-α Expression [4, 7]: 88 pg/mL
- IFN-α Expression [4, 8]: 133 pg/mL
- IFN-α Expression [4, 9]: 88 pg/mL
- IFN-α Expression [4, 10]: 131 pg/mL
- IFN-α Expression [4, 11]: 94 pg/mL
- IFN-α Expression [4, 12]: 92 pg/mL
- IFN-α Expression [4, 13]: 75 pg/mL
- IFN-α Expression [4, 14]: 28 pg/mL
- IFN-α Expression [4, 15]: 148 pg/mL
- IFN-α Expression [4, 16]: 167 pg/mL
- IFN-α Expression [4, 17]: 150 pg/mL
- IFN-α Expression [4, 18]: 18 pg/mL
- G-CSF protein (pg/ml) HeLa cells ([5]; G-CSF mRNA, listed as 5-methylcytosine/pseudouridine, Test A): 609,545 pg/ml
- G-CSF protein (pg/ml) HeLa cells ([5]; G-CSF mRNA, listed as 5-methylcytosine/pseudouridine, Test B): 358,182 pg/ml
- G-CSF protein (pg/ml) HeLa cells ([5]; G-CSF mRNA, listed as 5-methylcytosine/pseudouridine, Test C): 882,500 pg/ml
- G-CSF protein (pg/ml) HeLa cells ([5]; G-CSF mRNA, listed as 5-methylcytosine/pseudouridine, Test D): 87,045 pg/ml
- G-CSF protein (pg/ml) HeLa cells ([5]; combination chemistries): 301,364 pg/ml
- G-CSF protein (pg/ml) Rabbit reticulysates cells ([6]; Test A): 119,750 pg/ml
- G-CSF protein (pg/ml) Rabbit reticulysates cells ([6]; Test B): 57,875 pg/ml
- G-CSF protein (pg/ml) Rabbit reticulysates cells ([6]; Test C): 49,250 pg/ml
- G-CSF protein (pg/ml) Rabbit reticulysates cells ([6]; Test D): 47,750 pg/ml

Reference: US20180291335A1, “MODIFIED POLYNUCLEOTIDES FOR ALTERING CELL PHENOTYPE” (ModernaTX, Inc., priority 2012, published 2018)
